Reference: patent US20140087995A1 (published 2014)
Like-named read-outs stand apart in the source and are kept apart here. Numbered stars: 1 amine (or outer) side, 2 acyl side, 3 side chain; on linkers, the order of the positions; unused ones are H or OH. Bridge positions count the residues as written; N and C are the ends. Side chains are listed from the residue outwards. Ends that are not written are not given here. * marks the point of attachment. C20 diacid = O=C(O)CCCCCCCCCCCCCCCCCCC(=O)*; γGlu = O=C(O)[C@H](CCC(=O)[*:2])N[*:1]

Legend:
[1] = target: T1, human calcitonin receptor (human, UniProt P30988 25-474); assay: cell-based or functional assay
T1 sequence (looked up): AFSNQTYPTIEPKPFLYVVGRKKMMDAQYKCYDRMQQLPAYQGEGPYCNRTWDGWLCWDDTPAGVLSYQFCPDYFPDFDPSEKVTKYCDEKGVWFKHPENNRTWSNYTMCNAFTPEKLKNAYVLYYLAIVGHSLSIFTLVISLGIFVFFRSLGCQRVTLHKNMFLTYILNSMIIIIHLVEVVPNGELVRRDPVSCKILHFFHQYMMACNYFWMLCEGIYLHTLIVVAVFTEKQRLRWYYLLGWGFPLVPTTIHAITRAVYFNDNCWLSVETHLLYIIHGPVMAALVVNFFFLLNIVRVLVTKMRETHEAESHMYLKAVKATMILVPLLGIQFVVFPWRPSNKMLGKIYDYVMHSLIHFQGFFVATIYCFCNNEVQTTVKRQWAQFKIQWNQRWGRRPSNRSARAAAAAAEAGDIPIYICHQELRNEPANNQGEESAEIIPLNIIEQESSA

[2] = target: T2, human amylin receptor (amylin 3(a) receptor: human calcitonin receptor coexpressed with RAMP-3) (human, UniProt P30988 25-474; O60896 24-148); assay: cell-based or functional assay
T2 sequence (looked up) 1: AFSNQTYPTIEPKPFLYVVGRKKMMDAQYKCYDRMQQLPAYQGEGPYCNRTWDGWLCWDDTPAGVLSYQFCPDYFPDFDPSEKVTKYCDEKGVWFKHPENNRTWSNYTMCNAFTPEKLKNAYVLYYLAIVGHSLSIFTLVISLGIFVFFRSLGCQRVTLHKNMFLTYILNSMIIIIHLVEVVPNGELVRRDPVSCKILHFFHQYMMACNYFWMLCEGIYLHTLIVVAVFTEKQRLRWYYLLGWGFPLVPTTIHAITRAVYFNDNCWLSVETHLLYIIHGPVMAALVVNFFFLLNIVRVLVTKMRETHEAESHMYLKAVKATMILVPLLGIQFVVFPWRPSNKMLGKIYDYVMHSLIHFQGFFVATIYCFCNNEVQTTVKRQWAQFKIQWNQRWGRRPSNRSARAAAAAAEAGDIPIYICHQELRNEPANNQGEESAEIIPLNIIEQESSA
T2 sequence (looked up) 2: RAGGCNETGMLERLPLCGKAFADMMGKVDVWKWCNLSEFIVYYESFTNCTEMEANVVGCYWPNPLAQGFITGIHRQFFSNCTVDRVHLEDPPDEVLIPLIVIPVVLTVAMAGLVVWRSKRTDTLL

[3] = target: T2, human amylin receptor (amylin 3(a) …); assay: SPA competition against 125I-rat amylin, membranes of BHK amylin 3(a)/CRE-luc cells (Assay V)
Procedure: (§1) The binding assay was performed using scintillation proximity assay (SPA) beads (RPNQ0001) from PerkinElmer and cell membranes from the Amylin 3(a)/CRE-luc cells (as described in Assay (II)) were used. Membranes were prepared in the following way; the cells were rinsed with PBS and incubated with Versene for approximately 5 min before harvesting. The cells were flushed with PBS and the cell-suspension was centrifuged for 5 min at 1000 rpm. Cells were homogenized (ultrathurrax) in a buffer containing 20 mM Na-HEPES and 10 mM EDTA (pH 7.4) and centrifuged at 20.000 rpm for 15 min. The resulting pellet was resuspended, homogenized and centrifuged (20.000 rpm, 15 min) in a buffer containing 20 mM Na-HEPES and 0.1 mM EDTA (pH 7.4, buffer 2). The resulting pellet was resuspended in buffer 2 and protein concentration was measured (BCA protein Assay, Pierce). The homogenate was kept cold during the whole procedure. The membranes were kept at −80° C. until use. The assay was performed in a 384 well Optiplate (PerkinElmer) in a total volume of 40 ul. Membranes were mixed with SPA beads. Final concentration of membranes 35 ng/μL final and SPA beads was 0.05 mg/well. Test-compounds were dissolved in DMSO and further diluted in assay buffer (50 mM Hepes, pH 7.4, 1 mM CaCl2, 5 mM MgCl₂, 0.1% OA and 0.02% Tween20). […] The final mixture was incubated with shaking at 400 rpm for 120 min at 25° C. prior to centrifugation (1500 rpm, 10 min). Samples were analyzed on TopCounter™ (Packard). The IC₅₀ was calculated using (one site binding competition analysis) GraphPad Prism5 as a measure of receptor affinity.

[4] = target: T3, human calcitonin receptor (human, UniProt P30988 25-474); assay: cell-based or functional assay; remark: listed apart in the source
T3 sequence (looked up): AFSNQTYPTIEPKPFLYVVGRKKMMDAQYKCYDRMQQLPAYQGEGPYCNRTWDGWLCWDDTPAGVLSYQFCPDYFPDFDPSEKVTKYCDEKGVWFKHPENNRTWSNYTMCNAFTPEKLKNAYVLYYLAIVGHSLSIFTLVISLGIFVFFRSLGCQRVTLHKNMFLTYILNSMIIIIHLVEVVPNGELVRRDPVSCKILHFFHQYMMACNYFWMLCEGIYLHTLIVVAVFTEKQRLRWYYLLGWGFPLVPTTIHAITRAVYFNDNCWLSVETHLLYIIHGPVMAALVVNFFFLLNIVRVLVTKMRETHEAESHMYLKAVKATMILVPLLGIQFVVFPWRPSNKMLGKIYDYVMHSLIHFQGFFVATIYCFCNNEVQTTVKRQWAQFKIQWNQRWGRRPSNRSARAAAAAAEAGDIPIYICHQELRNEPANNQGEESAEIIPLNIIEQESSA

[5] = target: T4, human amylin 3(a) receptor (human calcitonin receptor + RAMP-3) (human, UniProt P30988 25-474; O60896 24-148, limits assumed); assay: cell-based or functional assay
T4 sequence (looked up) 1: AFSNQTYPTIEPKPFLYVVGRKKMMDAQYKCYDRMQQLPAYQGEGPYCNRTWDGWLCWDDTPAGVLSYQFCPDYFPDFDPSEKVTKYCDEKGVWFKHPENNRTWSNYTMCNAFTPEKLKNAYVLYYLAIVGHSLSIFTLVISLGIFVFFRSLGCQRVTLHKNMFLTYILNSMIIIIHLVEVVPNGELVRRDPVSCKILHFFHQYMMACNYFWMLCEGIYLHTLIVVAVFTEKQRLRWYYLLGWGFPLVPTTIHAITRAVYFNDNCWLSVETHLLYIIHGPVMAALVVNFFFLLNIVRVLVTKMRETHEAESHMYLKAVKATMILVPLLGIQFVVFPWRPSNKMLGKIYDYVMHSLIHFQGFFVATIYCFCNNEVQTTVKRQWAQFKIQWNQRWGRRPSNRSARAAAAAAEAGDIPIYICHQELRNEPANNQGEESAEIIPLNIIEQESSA
T4 sequence (looked up) 2: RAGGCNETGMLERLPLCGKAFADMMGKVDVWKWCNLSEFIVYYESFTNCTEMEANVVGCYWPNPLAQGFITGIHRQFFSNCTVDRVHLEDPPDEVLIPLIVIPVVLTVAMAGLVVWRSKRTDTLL

[6] = target: T4, human amylin 3(a) receptor (human …); assay: SPA competition binding, membranes of BHK cells with human calcitonin receptor + RAMP-3, displacement of 125I-rat amylin (Assay V)
Procedure: as §1

Binder	Ratio hCT/hAmylin funct. [1]	hCTR funct. EC50 (pM) [1] [pM]	hAmylin-R funct. EC50 (pM) [2] [pM]	IC50 [3] [nM]	Ratio hCT/hAmylin funct. [4]	hAmylin-R funct. EC50 (pM) [5] [pM]	IC50 [6] [nM]
K([γGlu-γGlu-C20 diacid])CNTATCATQRLAEFLRHSSNNPGAILSSTNVGPETY-NH2 (disulfide 2-7)	17.3	89600	5170	1.19			
{C20 diacid-γGlu}-KCNTATCATQRLAEFLRHSSPNFGAPLSSTNVGSNTP-NH2 (disulfide 2-7; SMILES CC(C)C[C@H](NC(=O)[C@H](CCCNC(=N)N)NC(=O)[C@H](CCC(N)=O)NC(=O)[C@@H](NC(=O)[C@H](C)NC(=O)[C@@H]1CSSC[C@H](NC(=O)[C@H](CCCCN)NC(=O)CC[C@H](NC(=O)CCCCCCCCCCCCCCCCCCC(=O)O)C(=O)O)C(=O)N[C@@H](CC(N)=O)C(=O)N[C@@H]([C@@H](C)O)C(=O)N[C@@H](C)C(=O)N[C@@H]([C@@H](C)O)C(=O)N1)[C@@H](C)O)C(=O)N[C@@H](C)C(=O)N[C@@H](CCC(=O)O)C(=O)N[C@@H](Cc1ccccc1)C(=O)N[C@@H](CC(C)C)C(=O)N[C@@H](CCCNC(=N)N)C(=O)N[C@@H](Cc1c[nH]cn1)C(=O)N[C@@H](CO)C(=O)N[C@@H](CO)C(=O)N1CCC[C@H]1C(=O)N[C@@H](CC(N)=O)C(=O)N[C@@H](Cc1ccccc1)C(=O)NCC(=O)N[C@@H](C)C(=O)N1CCC[C@H]1C(=O)N[C@@H](CC(C)C)C(=O)N[C@@H](CO)C(=O)N[C@@H](CO)C(=O)N[C@H](C(=O)N[C@@H](CC(N)=O)C(=O)N[C@H](C(=O)NCC(=O)N[C@@H](CO)C(=O)N[C@@H](CC(N)=O)C(=O)N[C@H](C(=O)N1CCC[C@H]1C(N)=O)[C@@H](C)O)C(C)C)[C@@H](C)O, also called compound 5)					1	162	0.374
{C20 diacid-γGlu}-KCNTATCATQRLAEFLRHSSPNFGAILPSTNVGSETY-NH2 (disulfide 2-7, also called compound 33)					2.2	243	0.915
